Literature values in paper PMC9523730.

Molecular target: 14-3-3ζ (Homo sapiens) (UniProt P63104)
Assay: various biophysical approaches

Q: For 14-3-3ζ (from UniProt P63104), which Kd is on record?
A: 5 nM
